These results are taken from IntAct's records for PubMed 11331308.

B1: Alpha-parvin (Homo sapiens), Q9NVD7 (parent)
chain: MATSPQKSPSVPKSPTPKSPPSRKKDDSFLGKLGGTLARRKKAKEVSELQEEGMNAINLPLSPIPFELDPEDTMLEENEVRTMVDPNSRSDPKLQELMKVLIDWINDVLVGERIIVKDLAEDLYDGQVLQKLFEKLESEKLNVAEVTQSEIAQKQKLQTVLEKINETLKLPPRSIKWNVDSVHAKSLVAILHLLVALSQYFRAPIRLPDHVSIQVVVVQKREGILQSRQIQEEITGNTEALSGRHERDAFDTLFDHAPDKLNVVKKTLITFVNKHLNKLNLEVTELETQFADGVYLVLLMGLLEGYFVPLHSFFLTPDSFEQKVLNVSFAFELMQDGGLEKPKPRPEDIVNCDLKSTLRVLYNLFTKYRNVE
partner: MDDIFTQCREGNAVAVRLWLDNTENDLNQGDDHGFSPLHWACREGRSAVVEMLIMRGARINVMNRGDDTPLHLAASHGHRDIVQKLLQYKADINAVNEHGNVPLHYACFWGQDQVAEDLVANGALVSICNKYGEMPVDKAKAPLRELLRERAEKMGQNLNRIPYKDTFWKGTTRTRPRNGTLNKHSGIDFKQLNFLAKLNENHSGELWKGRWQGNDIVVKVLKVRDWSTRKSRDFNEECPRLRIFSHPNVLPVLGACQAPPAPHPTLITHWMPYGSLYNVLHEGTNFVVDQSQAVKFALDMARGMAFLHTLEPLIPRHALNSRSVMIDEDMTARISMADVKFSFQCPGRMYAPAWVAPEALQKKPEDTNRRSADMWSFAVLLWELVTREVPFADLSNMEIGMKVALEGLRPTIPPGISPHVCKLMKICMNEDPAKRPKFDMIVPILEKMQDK

This assay covers variants of B1. Particulars: with ilk_mouse Ilk.
Turning to MATSPQKSPSVPKSPTPKSPPSRKKDDSFLGKLGGTLARRKKAKEVSELQEEGMNAINLPLSPIPFELDPEDTMLEENEVRTMVDPNSRSDPKLQELMKVLIDWINDVLVGERIIVKDLAEDLYDGQVLQKLFEKLESEKLNVAEVTQSEIAQKQKLQTVLEKINETLKLPPRSIKWNVDSVHAKSLVAILHLLVALSQYFRAPIRLPDHVSIQVVVVQKREGILQSRQIQEEITGNTEALSGRHERDAFDTLFDHAPDKLNVVKKTLITDVNKHLNKLNLEVTELETQFADGVYLVLLMGLLEGYFVPLHSFFLTPDSFEQKVLNVSFAFELMQDGGLEKPKPRPEDIVNCDLKSTLRVLYNLFTKYRNVE [F271D], the “effect of a mutation on the interaction” value is “disrupting interaction strength”.
